Data taken from patent US20200316233A1 (BOARD OF REGENTS OF THE UNIVERISTY OF NEBRASKA, published 2020).
Square brackets hold non-standard residues; d marks the D form. Ends that are not written are not given here.

Key:
[1] = target: T1, neurotensin receptor-1 (human, UniProt P30989 1-418); test: competition with 177Lu-N1 on HT-29 cells
T1 construct: whole, on cells; Endogenous receptor on the NTSR1-positive HT-29 human colon cancer cell line; also called NTR1; NTSR1
Experimental: (§1) The IC₅₀ for the unlabeled conjugates binding to the neurotensin receptors was determined using the HT-29 human colon cancer cell line. In these studies, ¹⁷⁷Lu-N1 (¹⁷⁷Lu-DOTA-β-Ala-[N-α-Me⁸, Dmt¹¹, Tle¹²]NT(6-13)), which was synthesized according to published methods (Jia, et al. (2015) Nucl. Med. Biol., 42:816), served as the competitive radioligand for comparing the relative binding affinities of the conjugates. […] At the end of the incubation, the cells were centrifuged, aspirated, and washed with fresh medium (5×500 μL). The cell-associated radioactivity was measured using gamma counter and the IC₅₀ values determined by nonlinear regression using GraphPad Prism 5. All measurements were in biological triplicate.

[2] = target: T1, neurotensin receptor-1; test: competitive binding to NTR1
Experimental: as §1

T1 sequence (P30989 whole entry): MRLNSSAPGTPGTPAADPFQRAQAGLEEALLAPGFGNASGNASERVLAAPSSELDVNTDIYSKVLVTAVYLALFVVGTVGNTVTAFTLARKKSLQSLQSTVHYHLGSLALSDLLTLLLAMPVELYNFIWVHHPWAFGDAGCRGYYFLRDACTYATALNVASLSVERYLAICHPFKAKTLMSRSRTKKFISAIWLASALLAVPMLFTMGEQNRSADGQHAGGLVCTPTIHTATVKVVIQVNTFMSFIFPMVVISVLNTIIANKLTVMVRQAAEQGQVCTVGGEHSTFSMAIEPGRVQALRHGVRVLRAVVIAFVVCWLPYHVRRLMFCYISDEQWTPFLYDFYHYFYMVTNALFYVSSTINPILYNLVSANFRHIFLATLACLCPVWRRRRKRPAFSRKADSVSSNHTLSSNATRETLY

Binder | IC50 [1] [nM] | IC50 [2] [nM]
KPRRPYIL (not fully specified; also: N-terminal DOTA, X linker PEG3, Y linker β-Ala, N-Me-Arg, Dmt, Tle building blocks, places not given here, matched control of 2c; also called compound 3a) [3a] | 49 | –
[dS][dS][dS]KPRRPYIL (not fully specified; also: N-terminal DOTA, X linker Gly-(D)Ser3, N-Me-Arg, Dmt, Tle building blocks, places not given here, matched control of 2f; also called compound 3b) [3b] | 52 | –
KPRRPYIL (not fully specified; also: DOTA on the peptide, linkers and non-natural residues not given here) [Ec] | – | 63
